Measured values: the Human Domainome abundance scans (Beltran et al. 2025)
± gives the uncertainty stated by the source.

B1: Gamma-crystallin S, residues 96 to 176; numbered along this chain, P22914 (parent)
chain: IQIFEKGDFSGQMYETTEDCPSIMEQFHMREIHSCKVLEGVWIFYELPNYRGRQYLLDKKEYRKPIDWGAASPAVQSFRRI

Variants of: B1
Assay: abundance fitness (aPCA) (normalised: wild type 0, dead -1); higher = more abundant; growth selection in yeast, the domain comes from the species named
Settings: Homo sapiens

Abundance fitness of substitutions, site by site:
I23: N -0.041 ± 0.08 | Y 0.024 ± 0.088 | S -0.038 ± 0.085 | P 0.02 ± 0.093 | M -0.041 ± 0.17 | A 0 ± 0.055 | Q -0.398 ± 0.18 | T -0.033 ± 0.16 | E -0.945 ± 0.24 | V 0.004 ± 0.048 | F 0.001 ± 0.072 | R -0.28 ± 0.077 | K -0.588 ± 0.083 | H -0.201 ± 0.16 | L -0.152 ± 0.089 | G -0.142 ± 0.045 | C -0.031 ± 0.11 | W 0.014 ± 0.11
S34: P -1.08 ± 0.23 | C -0.047 ± 0.056 | H -0.641 ± 0.16 | R -0.623 ± 0.06 | F -1.06 ± 0.2 | M -0.779 ± 0.16 | T -0.601 ± 0.099 | L -0.967 ± 0.12 | E -0.772 ± 0.097 | G 0.06 ± 0.035 | D -0.898 ± 0.28 | Y -0.646 ± 0.17 | A -0.004 ± 0.045 | K -0.954 ± 0.15 | I -0.844 ± 0.34 | Q -0.485 ± 0.11 | N -0.434 ± 0.12
M24: L 0.002 ± 0.06 | T 0.007 ± 0.06 | R -0.005 ± 0.056 | W 0.115 ± 0.06 | E -0.052 ± 0.078 | D -0.11 ± 0.16 | K 0.335 ± 0.12 | S -0.088 ± 0.074 | H -0.099 ± 0.17 | C -0.016 ± 0.16 | Q -0.097 ± 0.098 | Y -0.095 ± 0.14 | A -0.054 ± 0.059 | P -0.099 ± 0.069 | I -0.017 ± 0.11
F27: Q 0.021 ± 0.067 | M 0.014 ± 0.068 | K -0.018 ± 0.15 | V 0.014 ± 0.053 | N -0.141 ± 0.14 | A 0.033 ± 0.047 | R 0.02 ± 0.042 | Y -0.011 ± 0.15 | W 0.03 ± 0.059 | H 0.101 ± 0.24 | D -0.156 ± 0.13 | C -0.094 ± 0.085 | L 0.015 ± 0.049 | I 0.104 ± 0.094 | P -0.001 ± 0.081 | G 0.017 ± 0.04 | S 0.006 ± 0.047
C35: A -0.027 ± 0.053 | N -0.529 ± 0.12 | E -0.952 ± 0.14 | G 0.048 ± 0.033 | V 0.021 ± 0.048 | M 0.111 ± 0.046 | H -0.769 ± 0.23 | R -0.987 ± 0.077 | K -1.01 ± 0.21 | F 0.133 ± 0.071 | Y -0.217 ± 0.11 | Q -0.803 ± 0.097 | W -0.006 ± 0.047 | S 0.052 ± 0.044 | P -0.788 ± 0.12 | T 0.074 ± 0.07 | L 0.102 ± 0.042 | I -0.039 ± 0.1
L38: G 0.02 ± 0.03 | W -0.024 ± 0.049 | I -0.15 ± 0.11 | E -0.004 ± 0.053 | C -0.067 ± 0.065 | M -0.046 ± 0.095 | Q -0.072 ± 0.054 | Y -0.079 ± 0.096 | T 0.012 ± 0.058 | R 0.004 ± 0.037 | S -0.014 ± 0.043 | A 0.032 ± 0.044 | P 0.1 ± 0.06 | K -0.016 ± 0.075 | H 0.043 ± 0.12 | F -0.017 ± 0.071
E25: W -0.434 ± 0.35
H28: S 0.042 ± 0.069 | R -0.047 ± 0.05 | M -0.05 ± 0.089 | Y 0.035 ± 0.11 | Q 0.037 ± 0.13 | E 0.006 ± 0.09 | D 0.027 ± 0.099 | L 0.035 ± 0.056 | A 0.045 ± 0.058 | T 0.036 ± 0.08 | F 0.332 ± 0.26 | K 0.07 ± 0.099 | W 0.05 ± 0.072 | N 0.009 ± 0.081 | I 0.079 ± 0.17 | G 0.048 ± 0.047 | P 0.137 ± 0.056 | V -0.011 ± 0.052 | C 0.031 ± 0.086
E31: S -0.034 ± 0.068 | F 0.041 ± 0.081 | A 0.066 ± 0.048 | V 0.072 ± 0.045 | Y 0.116 ± 0.12 | C -0.13 ± 0.12 | G 0.015 ± 0.045 | H 0.069 ± 0.14 | M -0.039 ± 0.089 | K -0.034 ± 0.1 | L 0.056 ± 0.051 | D 0.138 ± 0.12 | T 0.106 ± 0.086 | Q 0.02 ± 0.097 | I 0.05 ± 0.081 | W 0.084 ± 0.093 | N -0.008 ± 0.084 | P -0.056 ± 0.094
Q26: K -0.079 ± 0.12 | R 0.009 ± 0.041 | S -0.035 ± 0.052 | C -0.123 ± 0.097 | V 0.009 ± 0.059 | T -0.047 ± 0.088 | I -0.065 ± 0.15 | G 0.044 ± 0.051 | D 0.073 ± 0.11 | W 0 ± 0.061 | A -0.018 ± 0.063 | Y 0.082 ± 0.11 | E 0.079 ± 0.089 | F -0.033 ± 0.071 | P -0.021 ± 0.092 | M -0.04 ± 0.087
R30: W 0.105 ± 0.051 | G 0 ± 0.038 | C 0.009 ± 0.058 | Y -0.02 ± 0.1 | S -0.07 ± 0.046 | V -0.144 ± 0.038 | E 0.066 ± 0.063 | T 0.011 ± 0.073 | M 0.047 ± 0.076 | L -0.031 ± 0.048 | F 0.005 ± 0.072 | N 0.044 ± 0.14 | P 0 ± 0.1 | I -0.099 ± 0.11 | H 0.026 ± 0.095 | A 0.061 ± 0.046 | D 0.009 ± 0.095 | Q 0.11 ± 0.088 | K 0.055 ± 0.078
M29: F 0.036 ± 0.076 | Q 0.048 ± 0.14 | S 0.063 ± 0.051 | D 0.034 ± 0.09 | H 0.124 ± 0.21 | K -0.006 ± 0.11 | T 0.109 ± 0.09 | Y 0.025 ± 0.14 | G 0.053 ± 0.045 | C 0.132 ± 0.13 | I -0.015 ± 0.11 | A 0.048 ± 0.046 | P 0.058 ± 0.079 | N 0.226 ± 0.13 | W 0.027 ± 0.071 | L -0.084 ± 0.055 | V 0.034 ± 0.052 | E 0.109 ± 0.078
C20: P -1.04 ± 0.16 | V -0.087 ± 0.06 | N -0.134 ± 0.11 | R -0.235 ± 0.049 | Q -0.002 ± 0.09 | S -0.054 ± 0.052 | L -0.142 ± 0.051 | T -0.086 ± 0.056 | Y -0.035 ± 0.1 | M -0.008 ± 0.081 | W -0.065 ± 0.077
S22: A 0.023 ± 0.054 | I 0.033 ± 0.12 | Q -0.019 ± 0.11 | C 0.02 ± 0.12 | P -0.907 ± 0.2 | E -0.034 ± 0.083 | H -0.01 ± 0.077 | V 0.017 ± 0.051 | F -0.035 ± 0.12 | K 0.062 ± 0.099 | T -0.08 ± 0.066 | L -0.022 ± 0.066 | Y 0.142 ± 0.3 | N 0.001 ± 0.11 | M -0.094 ± 0.078 | G -0.015 ± 0.037 | W 0.082 ± 0.1 | R -0.016 ± 0.044
P21: S 0.019 ± 0.081 | N -0.015 ± 0.12 | E -0.028 ± 0.059 | T -0.012 ± 0.074 | C -0.011 ± 0.081 | K -0.016 ± 0.084 | Q 0.023 ± 0.11 | I -0.053 ± 0.12 | A -0.043 ± 0.058 | W 0.037 ± 0.062 | F 0.075 ± 0.083 | M -0.057 ± 0.071 | D -0.063 ± 0.08 | Y -0.109 ± 0.11 | L -0.002 ± 0.048 | R -0.106 ± 0.045 | V 0.009 ± 0.042 | G 0.004 ± 0.04
I32: R -1.01 ± 0.095 | M -0.001 ± 0.099 | Q -0.809 ± 0.28 | N -0.223 ± 0.23 | T -0.027 ± 0.083 | S -0.087 ± 0.063 | C 0.015 ± 0.088 | W -0.193 ± 0.066 | K -0.755 ± 0.34 | F 0.09 ± 0.11 | L 0.025 ± 0.07 | P 0.051 ± 0.11 | E -0.348 ± 0.18 | V -0.029 ± 0.063
E39: S 0.035 ± 0.056 | M -0.014 ± 0.057 | W -0.06 ± 0.035 | N 0.079 ± 0.13 | C -0.039 ± 0.081 | V 0.061 ± 0.052 | H -0.1 ± 0.12 | D -0.028 ± 0.12 | A 0.059 ± 0.046 | K 0 ± 0.069 | R 0.054 ± 0.037 | P -0.227 ± 0.078 | F -0.025 ± 0.13 | T -0.012 ± 0.052 | Q -0.03 ± 0.081 | Y -0.045 ± 0.092
H33: A -0.047 ± 0.049 | R -0.047 ± 0.037 | C 0.035 ± 0.063 | T 0.06 ± 0.058 | V -0.013 ± 0.039 | K -0.12 ± 0.077 | S 0.03 ± 0.047 | W 0.062 ± 0.05 | N -0.01 ± 0.11 | Y 0.02 ± 0.062 | D 0.077 ± 0.055 | I -0.002 ± 0.08 | E 0.054 ± 0.046 | F 0.093 ± 0.094 | M 0.027 ± 0.074 | G 0.012 ± 0.033 | P 0.057 ± 0.062 | Q -0.023 ± 0.067 | L -0.021 ± 0.044
G40: W -0.312 ± 0.068 | I -0.759 ± 0.28 | K -0.337 ± 0.1 | M -0.464 ± 0.092 | N -0.14 ± 0.14 | S -0.051 ± 0.061 | H -0.252 ± 0.14 | P -0.028 ± 0.086 | L -0.739 ± 0.1 | R -0.322 ± 0.049 | C -0.158 ± 0.086 | V -1.06 ± 0.16 | A -0.051 ± 0.039 | F -0.261 ± 0.13 | T -0.251 ± 0.075 | D -0.012 ± 0.1
V37: I -0.142 ± 0.12 | R 0.042 ± 0.037 | Y -0.769 ± 0.21 | T 0.004 ± 0.043 | A 0.081 ± 0.039 | Q -0.105 ± 0.057 | N 0.087 ± 0.11 | D -0.166 ± 0.066 | G -0.075 ± 0.04 | L 0.023 ± 0.039 | C 0.075 ± 0.058 | K 0.027 ± 0.067 | M 0.049 ± 0.057
K36: Y 0.068 ± 0.092 | W 0.15 ± 0.052 | G -0.171 ± 0.037 | P -1.19 ± 0.21 | N -0.037 ± 0.12 | M 0.024 ± 0.075 | S 0.015 ± 0.048 | R 0.022 ± 0.035 | T -0.019 ± 0.057 | Q -0.002 ± 0.07 | F 0.1 ± 0.073 | C -0.078 ± 0.064 | I -0.045 ± 0.11 | D -0.019 ± 0.083 | A 0.017 ± 0.045 | H -0.013 ± 0.086 | E -0.021 ± 0.055
